Assay results from patent US9029508 (dated 2015).
Where “and” joins values, the source holds several entries; their conditions need not be identical. Identical values can stand only once. Like-named read-outs stand apart in the source and are kept apart here.

How the values were obtained:
PlGF [1] = target: T1, PlGF (human, UniProt P49763); assay: SPR
T1 chain: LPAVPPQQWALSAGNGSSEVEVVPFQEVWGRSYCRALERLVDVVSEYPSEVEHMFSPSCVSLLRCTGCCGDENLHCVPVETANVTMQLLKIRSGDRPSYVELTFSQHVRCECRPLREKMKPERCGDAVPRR

PlGF [2] = target: T1, PlGF; assay: ELISA
IGF2 [3] = target: T2, IGF2 (human, UniProt P01344); assay: SPR
IGF1 [4] = target: T3, IGF1 (human, UniProt P05019); assay: ELISA
IGF2 [5] = target: T2, IGF2; assay: ELISA
IGF2 [6] = target: T2, IGF2; assay: ELISA; remark: listed apart in the source
IGF1 [7] = target: T3, IGF1; assay: ELISA; remark: listed apart in the source
ErbB3 [8] = target: T4, ErbB3 (human, UniProt P21860); assay: SPR
ErbB3 [9] = target: T4, ErbB3; assay: ELISA
HGF [10] = target: T5, HGF (human, UniProt P14210); assay: SPR
HGF [11] = target: T5, HGF; assay: ELISA
HGF [12] = target: T5, HGF; assay: competition
IGF1R [13] = target: T6, IGF1R (human, UniProt P08069); assay: ELISA
IGF1R [14] = target: T6, IGF1R; assay: ELISA; remark: listed apart in the source
DLL4 [15] = target: T7, DLL4 (human, UniProt Q9NR61); assay: ELISA
DLL4 [16] = target: T7, DLL4; assay: competition

T5 sequence (P14210 32-728): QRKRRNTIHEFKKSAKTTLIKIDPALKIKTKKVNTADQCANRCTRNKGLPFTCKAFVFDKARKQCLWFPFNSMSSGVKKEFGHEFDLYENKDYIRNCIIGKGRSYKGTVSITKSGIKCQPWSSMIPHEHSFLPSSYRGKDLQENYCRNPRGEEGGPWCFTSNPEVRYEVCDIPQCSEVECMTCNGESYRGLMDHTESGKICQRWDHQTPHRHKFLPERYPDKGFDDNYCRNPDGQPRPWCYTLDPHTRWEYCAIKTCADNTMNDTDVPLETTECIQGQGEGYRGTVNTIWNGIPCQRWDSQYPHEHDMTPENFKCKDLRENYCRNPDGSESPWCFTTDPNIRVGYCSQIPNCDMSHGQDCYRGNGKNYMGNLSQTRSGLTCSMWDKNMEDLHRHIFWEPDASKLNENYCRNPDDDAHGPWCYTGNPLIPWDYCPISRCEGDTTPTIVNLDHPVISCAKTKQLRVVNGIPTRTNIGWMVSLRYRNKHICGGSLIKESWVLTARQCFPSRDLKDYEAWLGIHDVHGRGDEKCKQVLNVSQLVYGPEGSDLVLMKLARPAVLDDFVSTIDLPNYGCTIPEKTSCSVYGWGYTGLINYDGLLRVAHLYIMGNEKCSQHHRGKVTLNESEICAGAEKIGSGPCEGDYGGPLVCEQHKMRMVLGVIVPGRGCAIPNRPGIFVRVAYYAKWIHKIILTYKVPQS
T7 sequence (Q9NR61 27-524): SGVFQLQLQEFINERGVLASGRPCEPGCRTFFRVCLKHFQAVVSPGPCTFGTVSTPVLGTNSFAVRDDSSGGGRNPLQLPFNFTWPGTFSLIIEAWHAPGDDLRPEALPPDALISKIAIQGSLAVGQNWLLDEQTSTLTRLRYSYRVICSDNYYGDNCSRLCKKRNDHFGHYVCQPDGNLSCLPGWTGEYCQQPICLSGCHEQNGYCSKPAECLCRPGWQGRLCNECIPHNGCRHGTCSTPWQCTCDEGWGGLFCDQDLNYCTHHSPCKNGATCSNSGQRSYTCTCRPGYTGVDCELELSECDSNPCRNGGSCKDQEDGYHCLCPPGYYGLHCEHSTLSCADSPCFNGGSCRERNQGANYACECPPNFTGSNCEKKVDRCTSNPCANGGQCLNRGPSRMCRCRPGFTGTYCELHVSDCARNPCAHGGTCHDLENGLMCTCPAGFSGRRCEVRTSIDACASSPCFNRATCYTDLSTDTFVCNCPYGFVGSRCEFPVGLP

B1: AB047 (antibody, V domains shown)
VH: QVQLQQSGAELVKPGASVKISCKASGYTFTDYYINWVKLAPGQGLEWIGWIYPGSGNTKYNEKFKGKATLTIDTSSSTAYMQLSSLTSEDTAVYFCVRDSPFFDYWGQGTLLTVSS
VL: DIVLTQSPDSLAVSLGERVTMNCKSSQSLLNSGMRKSFLAWYQQKPGQSPKLLIYWASTRESGVPDRFTGSGSGTDFTLTISSVQAEDVAVYYCKQSYHLFTFGSGTKLEIKR
Kd (PlGF [1]): 0.0285 nM and 0.0284 nM
EC50 (PlGF [2]): 0.2 nM

B2: DVD041 IGF1,2 arm (antibody, V domains shown)
VH: QVQLVQSGAEVKKPGASVKVSCKASGYTFTSYDINWVRQATGQGLEWMGWMNPNSGNTGYAQKFQGRVTMTRNTSISTAYMELSSLRSEDTAVYYCARDPYYYYYGMDVWGQGTTVTVSS
VL: QSVLTQPPSVSAAPGQKVTISCSGSSSNIENNHVSWYQQLPGTAPKLLIYDNNKRPSGIPDRFSGSKSGTSATLGITGLQTGDEADYYCETWDTSLSAGRVFGGGTKLTVLG
modifications: DVD-Ig inner
Kd (IGF2 [3]): < 0.0124 nM
EC50 (IGF1 [4]): 381 nM
EC50 (IGF2 [5]): 7340 nM
EC50 (IGF2 [6]): 7340 nM
EC50 (IGF1 [7]): 381 nM

B3: DVD299 ErbB3 arm (antibody, V domains shown)
VH: QVQLQQWGAGLLKPSETLSLTCAVYGGSFSGYYWSWIRQPPGKGLEWIGEINHSGSTNYNPSLKSRVTISVETSKNQFSLKLSSVTAADTAVYYCARDKWTWYFDLWGRGTLVTVSS
VL: not shown
modifications: DVD-Ig outer
Kd (ErbB3 [8]): 0.82 nM
EC50 (ErbB3 [9]): 1.96 nM

B4: DVD258 PlGF arm (antibody, V domains shown)
VH: QVQLQQSGAELVKPGASVKISCKASGYTFTDYYINWVKLAPGQGLEWIGWIYPGSGNTKYNEKFKGKATLTIDTSSSTAYMQLSSLTSEDTAVYFCVRDSPFFDYWGQGTLLTVSS
VL: DIVLTQSPDSLAVSLGERVTMNCKSSQSLLNSGMRKSFLAWYQQKPGQSPKLLIYWASTRESGVPDRFTGSGSGTDFTLTISSVQAEDVAVYYCKQSYHLFTFGSGTKLEIKR
modifications: DVD-Ig outer
Kd (PlGF [1]): < 0.254 nM
EC50 (PlGF [2]): 0.08 nM

B5: DVD033 HGF arm (antibody, V domains shown)
VH: QVQLVESGGGLVKPGGSLRLSCAASGFTFSDYYMSWIRQAPGKGLEWVSYISSSGSTIYYADSVKGRFTISRDNAKNSLYLQMNSLRAEDTAVYYCARDEYNSGWYVLFDYWGQGTLVTVSS
VL: DIQMTQSPSSVSASVGDRVTITCRASQGISSWLAWYQQKPGKAPNLLIYEASSLQSGVPSRFGGSGSGTDFTLTISSLQPEDFATYYCQQANGFPWTFGQGTKVEIKR
modifications: DVD-Ig inner
Kd (HGF [10]): 0.31 nM
EC50 (HGF [11]): 11.9 nM
IC50 (HGF [12]): 8.7 nM

B6: DVD042 IGF1,2 arm (antibody, V domains shown)
VH: QVQLVQSGAEVKKPGASVKVSCKASGYTFTSYDINWVRQATGQGLEWMGWMNPNSGNTGYAQKFQGRVTMTRNTSISTAYMELSSLRSEDTAVYYCARDPYYYYYGMDVWGQGTTVTVSS
VL: QSVLTQPPSVSAAPGQKVTISCSGSSSNIENNHVSWYQQLPGTAPKLLIYDNNKRPSGIPDRFSGSKSGTSATLGITGLQTGDEADYYCETWDTSLSAGRVFGGGTKLTVLG
modifications: DVD-Ig outer
Kd (IGF2 [3]): 0.000998 nM
EC50 (IGF1 [4]): 2.54 nM
EC50 (IGF2 [5]): 17.6 nM
EC50 (IGF2 [6]): 17.6 nM
EC50 (IGF1 [7]): 2.5 nM

B7: DVD257 PlGF arm (antibody, V domains shown)
VH: QVQLQQSGAELVKPGASVKISCKASGYTFTDYYINWVKLAPGQGLEWIGWIYPGSGNTKYNEKFKGKATLTIDTSSSTAYMQLSSLTSEDTAVYFCVRDSPFFDYWGQGTLLTVSS
VL: DIVLTQSPDSLAVSLGERVTMNCKSSQSLLNSGMRKSFLAWYQQKPGQSPKLLIYWASTRESGVPDRFTGSGSGTDFTLTISSVQAEDVAVYYCKQSYHLFTFGSGTKLEIKR
modifications: DVD-Ig inner
Kd (PlGF [1]): 0.367 nM
EC50 (PlGF [2]): 2 nM

B8: DVD026 HGF arm (antibody, V domains shown)
VH: QVQLVESGGGLVKPGGSLRLSCAASGFTFSDYYMSWIRQAPGKGLEWVSYISSSGSTIYYADSVKGRFTISRDNAKNSLYLQMNSLRAEDTAVYYCARDEYNSGWYVLFDYWGQGTLVTVSS
VL: DIQMTQSPSSVSASVGDRVTITCRASQGISSWLAWYQQKPGKAPNLLIYEASSLQSGVPSRFGGSGSGTDFTLTISSLQPEDFATYYCQQANGFPWTFGQGTKVEIKR
modifications: DVD-Ig outer
Kd (HGF [10]): 0.0159 nM
EC50 (HGF [11]): 0.33 nM

B9: DVD031 IGF1R arm (antibody, V domains shown)
VH: EVQLLESGGGLVQPGGSLRLSCTASGFTFSSYAMNWVRQAPGKGLEWVSAISGSGGTTFYADSVKGRFTISRDNSRTTLYLQMNSLRAEDTAVYYCAKDLGWSDSYYYYYGMDVWGQGTTVTVSS
VL: DIQMTQFPSSLSASVGDRVTITCRASQGIRNDLGWYQQKPGKAPKRLIYAASRLHRGVPSRFSGSGSGTEFTLTISSLQPEDFATYYCLQHNSYPCSFGQGTKLEIKR
modifications: DVD-Ig inner
EC50 (IGF1R [13]): 171 nM
EC50 (IGF1R [14]): 171 nM

B10: DVD046 HGF arm (antibody, V domains shown)
VH: QVQLVESGGGLVKPGGSLRLSCAASGFTFSDYYMSWIRQAPGKGLEWVSYISSSGSTIYYADSVKGRFTISRDNAKNSLYLQMNSLRAEDTAVYYCARDEYNSGWYVLFDYWGQGTLVTVSS
VL: DIQMTQSPSSVSASVGDRVTITCRASQGISSWLAWYQQKPGKAPNLLIYEASSLQSGVPSRFGGSGSGTDFTLTISSLQPEDFATYYCQQANGFPWTFGQGTKVEIKR
modifications: DVD-Ig outer
Kd (HGF [10]): < 0.0236 nM
EC50 (HGF [11]): 0.5 nM

B11: DVD034 HGF arm (antibody, V domains shown)
VH: QVQLVESGGGLVKPGGSLRLSCAASGFTFSDYYMSWIRQAPGKGLEWVSYISSSGSTIYYADSVKGRFTISRDNAKNSLYLQMNSLRAEDTAVYYCARDEYNSGWYVLFDYWGQGTLVTVSS
VL: DIQMTQSPSSVSASVGDRVTITCRASQGISSWLAWYQQKPGKAPNLLIYEASSLQSGVPSRFGGSGSGTDFTLTISSLQPEDFATYYCQQANGFPWTFGQGTKVEIKR
modifications: DVD-Ig outer
Kd (HGF [10]): 0.0215 nM
EC50 (HGF [11]): 0.27 nM
IC50 (HGF [12]): 0.34 nM

B12: DVD300 ErbB3 arm (antibody, V domains shown)
VH: QVQLQQWGAGLLKPSETLSLTCAVYGGSFSGYYWSWIRQPPGKGLEWIGEINHSGSTNYNPSLKSRVTISVETSKNQFSLKLSSVTAADTAVYYCARDKWTWYFDLWGRGTLVTVSS
VL: not shown
modifications: DVD-Ig inner
EC50 (ErbB3 [9]): 7630 nM

B13: DVD258 DLL4 arm (antibody)
chain 1: EVQLVESGGGLVQPGGSLRLSCAASGFTFTDNWISWVRQAPGKGLEWVGYISPNSGFTYYADSVKGRFTISADTSKNTAYLQMNSLRAEDTAVYYCARDNFGGYFDYWGQGTLVTVSS
chain 2: DIQMTQSPSSLSASVGDRVTITCRASQDVSTAVAWYQQKPGKAPKLLIYSASFLYSGVPSRFSGSGSGTDFTLTISSLQPEDFATTYYCQQSYTGTVTFGQGTKVEIKR
modifications: DVD-Ig inner
EC50 (DLL4 [15]): 2.3 nM
IC50 (DLL4 [16]): 17.5 nM

B14: DVD259 PlGF arm (antibody, V domains shown)
VH: QVQLQQSGAELVKPGASVKISCKASGYTFTDYYINWVKLAPGQGLEWIGWIYPGSGNTKYNEKFKGKATLTIDTSSSTAYMQLSSLTSEDTAVYFCVRDSPFFDYWGQGTLLTVSS
VL: DIVLTQSPDSLAVSLGERVTMNCKSSQSLLNSGMRKSFLAWYQQKPGQSPKLLIYWASTRESGVPDRFTGSGSGTDFTLTISSVQAEDVAVYYCKQSYHLFTFGSGTKLEIKR
modifications: DVD-Ig inner
Kd (PlGF [1]): 0.33 nM
EC50 (PlGF [2]): 1.3 nM

B15: DVD025 HGF arm (antibody, V domains shown)
VH: QVQLVESGGGLVKPGGSLRLSCAASGFTFSDYYMSWIRQAPGKGLEWVSYISSSGSTIYYADSVKGRFTISRDNAKNSLYLQMNSLRAEDTAVYYCARDEYNSGWYVLFDYWGQGTLVTVSS
VL: DIQMTQSPSSVSASVGDRVTITCRASQGISSWLAWYQQKPGKAPNLLIYEASSLQSGVPSRFGGSGSGTDFTLTISSLQPEDFATYYCQQANGFPWTFGQGTKVEIKR
modifications: DVD-Ig inner
Kd (HGF [10]): 0.746 nM
EC50 (HGF [11]): 251 nM
IC50 (HGF [12]): > 100 nM

B16: AB012 (antibody, V domains shown)
VH: QVQLVESGGGLVKPGGSLRLSCAASGFTFSDYYMSWIRQAPGKGLEWVSYISSSGSTIYYADSVKGRFTISRDNAKNSLYLQMNSLRAEDTAVYYCARDEYNSGWYVLFDYWGQGTLVTVSS
VL: DIQMTQSPSSVSASVGDRVTITCRASQGISSWLAWYQQKPGKAPNLLIYEASSLQSGVPSRFGGSGSGTDFTLTISSLQPEDFATYYCQQANGFPWTFGQGTKVEIKR
Kd (HGF [10]): < 0.0284 nM
EC50 (HGF [11]): 0.19 nM and 0.22 nM
IC50 (HGF [12]): 0.18 nM

B17: DVD021 IGF1R arm (antibody, V domains shown)
VH: EVQLLESGGGLVQPGGSLRLSCTASGFTFSSYAMNWVRQAPGKGLEWVSAISGSGGTTFYADSVKGRFTISRDNSRTTLYLQMNSLRAEDTAVYYCAKDLGWSDSYYYYYGMDVWGQGTTVTVSS
VL: DIQMTQFPSSLSASVGDRVTITCRASQGIRNDLGWYQQKPGKAPKRLIYAASRLHRGVPSRFSGSGSGTEFTLTISSLQPEDFATYYCLQHNSYPCSFGQGTKLEIKR
modifications: DVD-Ig inner
EC50 (IGF1R [13]): 135 nM
EC50 (IGF1R [14]): 135 nM

B18: DVD260 PlGF arm (antibody, V domains shown)
VH: QVQLQQSGAELVKPGASVKISCKASGYTFTDYYINWVKLAPGQGLEWIGWIYPGSGNTKYNEKFKGKATLTIDTSSSTAYMQLSSLTSEDTAVYFCVRDSPFFDYWGQGTLLTVSS
VL: DIVLTQSPDSLAVSLGERVTMNCKSSQSLLNSGMRKSFLAWYQQKPGQSPKLLIYWASTRESGVPDRFTGSGSGTDFTLTISSVQAEDVAVYYCKQSYHLFTFGSGTKLEIKR
modifications: DVD-Ig outer
Kd (PlGF [1]): 0.012 nM
EC50 (PlGF [2]): 0.12 nM
